Values quoted from earlier work in publication PMC9066409.
Read-outs that look alike come from different tables or passages of the source.

Tests used:
[1] = target: FGFR1 (Homo sapiens) (UniProt P11362)
[2] = target: FGFR1 (Homo sapiens) (UniProt P11362); remark: listed apart in the source

Sequence of UniProt P11362 (P11362 22-822): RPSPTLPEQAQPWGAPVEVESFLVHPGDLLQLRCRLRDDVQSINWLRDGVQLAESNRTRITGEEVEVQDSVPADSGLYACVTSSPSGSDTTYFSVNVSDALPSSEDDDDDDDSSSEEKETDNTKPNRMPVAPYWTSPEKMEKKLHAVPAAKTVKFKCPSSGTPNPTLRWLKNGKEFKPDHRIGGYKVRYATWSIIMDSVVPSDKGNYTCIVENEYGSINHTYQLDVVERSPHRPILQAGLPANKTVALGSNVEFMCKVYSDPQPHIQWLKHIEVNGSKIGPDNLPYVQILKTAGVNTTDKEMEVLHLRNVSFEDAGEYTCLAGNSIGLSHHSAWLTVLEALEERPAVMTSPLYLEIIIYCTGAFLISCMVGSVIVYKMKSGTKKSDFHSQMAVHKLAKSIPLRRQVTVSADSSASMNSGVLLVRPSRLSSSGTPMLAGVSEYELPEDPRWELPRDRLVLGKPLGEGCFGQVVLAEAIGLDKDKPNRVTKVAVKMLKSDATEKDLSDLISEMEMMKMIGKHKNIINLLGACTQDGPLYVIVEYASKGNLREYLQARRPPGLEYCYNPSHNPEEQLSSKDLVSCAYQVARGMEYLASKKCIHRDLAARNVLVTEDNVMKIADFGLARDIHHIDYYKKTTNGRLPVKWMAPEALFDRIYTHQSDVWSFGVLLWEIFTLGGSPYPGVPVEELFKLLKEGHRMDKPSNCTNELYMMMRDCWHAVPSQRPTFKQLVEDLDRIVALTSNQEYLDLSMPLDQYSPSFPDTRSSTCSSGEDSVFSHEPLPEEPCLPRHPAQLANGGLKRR

Kd [1] [nM] | Kd [2] [nM] | Substance
136 |  | FGF1 (from UniProt P05230)
 | 62 | FGF2 (from UniProt P09038)
